# Assay results from a protein production outcome set (Wang et al. 2014).
# Assay: label from the status in PepcDB records
# 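Note: failed if final PepcDB status was selected cloned or expressed and not failed if soluble or beyond.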
row,Sequence,protein production
1,MKSITQASFMKGIMFTFTIAIISYILAKFPILHTIGALAIAIIFAMIYRQVIGYPEHIRPGITFASKRLLKFAIILYGLKLNMGDILGKGWKLLLIDIIVIIFSISLTLLLNQIIKGNKDISILLGIGTGVCGAAAIAATAPILKSKEKDIAISVGIIALVGTIFALIYTAIEAIFNIPTITYGAWTGISLHEIAQVVLAAGIGGSEAMTFALLGKLGRVFLLIPLSIVLILYMRYKSHSSQVQQKIDIPYFLIGFIIMACINTFVPIPSLLMNIINVITTLCMLMAMVALGLNIVLKEVISKALKPFIVICITSICLSGVTLLVTSIMFK,failed
2,MKSITTDELKNKLLESKPVQIVDVRTDEETAMGYIPNAKLIPMDTIPDNLNSFNKNEIYYIVCAGGVRSAKVVEYLEANGIDAVNVEGGMHAWGDEGLEIKSI,failed
3,MKSIYYLSADDLFQMNTFLIQTYSPAEQIGIKDRNALEMASNQPAQFVFDVDLYPTIEEKAAILMINIATKHCFYNANKRTAVMATDLFLQLNGYDFQLDTQEGVDLLVFIATYRSDFDQLKNDVSKVIRAKLNHTSSHLEHHHHHH,not failed
4,MKSLEEKTIAKEQIFSGKVIDLYVEDVELPNGKASKREIVKHPGAVAVLAVTDEGKIIMVKQFRKPLERTIVEIPAGKLEKGEEPEYTALRELEEETGYTAKKLTKITAFYTSPGFADEIVHVFLAEELSVLEEKRELDEDEFVEVMEVTLEDALKLVESREVYDAKTAYAIQYLQLKEALQAQK,failed
5,MKSLHRPDLYSWSTFNPARNIDFNGFAWIRPEGNILIDPVALSNHDWKHLESLGGVVWIVLTNSDHVRSAKEIADQTYTKIAGPVAEKENFPIYCDRWLSDGDELVPGLKVMELQGSKTPGELALLLEETTLITGDLVRAYRAGGLEILPDEKLMNKQKVVASVRRLAALEKVEAVLVGDGWSVFRDGRDRLKELVATLA,not failed
6,MKSLWSDADAAECVERLGLLGLPPELGLRTYSARLLGSNPKLVLHGGGNTSVKLNINDLFGNPVQVMCIKGSGQDLATITASGHPAVRLAPLQQLKVLDHLSDEDMVNILRTNLLDCRAPTPSVEALLHAFVDRPVIDHTHAVAAMVIADQPDGDRLCRYIYGERVLWIPYVMSGFALSLAVERAFRAYPDAEGMLLGKHGLCTFGESAKASYERMITFVTLAENFIESRRAIYSPPVITPPAKPNNLADMAHIAPYLRAAFARSSAISEKKHWIFDLRTDPKSLAFSSGLGTSDIAQRGVATPDHVIRMKGRPVVLDAPDLNNLGDWAAQTQTKIAAFVERYQHYFHRNNARFERGKIALDALPRAIVIPYLGVVGAGRTAEDAAINADIIESWLDVVTDATVCGDYEPIGEADEFDMEYWSLEQAKIDKASVKPLQGQIVVVTGAGGGIGAAIAKEFSLLGAELAVLDIDSESAKNVAAQLGPHALALQCDVTETASVQAAFETIATRFGGVDIVVSNAGVALSGAIAELPEATLRTSFEVNFFAHQRVAQQAVSIMKKQGIGGVLLFNISKQAINPGINFGAYGTSKAALLSLVRQYALEQGQDSIRVNAVNADRIRSGLLDDEMISLRARARGLSEEKYMAGNLLGQEVTAQDVAKAFVVSAMLDKSTGNVITVDGGNVAAMLR,failed
7,MKSRIIVRTSFDAAHAVKVGDHWEDVHGHTFFLEVAIEGEIKNGYVMDFLELRKIVEEITKELDHRNLNNIFENPTTENIALWIGERIRDKLPPYVKLKRVVLWEGKDNGVELEW,not failed
8,MKSRWIIGRSEYLDLAFHAWKQARQDETVIRIEVPQDSEHEFDLGVLDGLNPTDGAMFVAFDERFGNFKRVELMQAAMERGFKLESYIHSSAAIGTDVVIGLNTFVGAHAVVGHGCKIDYNTVIHAGAHLGTACRIKSSCWIENGVQIGAGVEIGGNSILRTGAIVRGGIKVGRSCELGWPRVYCEDVPAKTYFDARYHNPIHTFGT,failed
9,MKSTEKKELSHFRLKLETYLNEHFPEMSGNNPFITARSDEALTAYCDAVAQGFSHPEAESMASEVLYQGLHFSRYDTLVSVLEREFEQELPSPLPERLAPILLKNKAIQSVFAKYDLTDDFEASPEYEHLYTELTGTIVLLIESNHLPTIGGGNDTV,not failed
10,MKSTFSVLFFVKKDKQKINGSYPIFVRITIDGVASRFNSKLDVQPKLWDGKAGKAAGRSAEATRINRLLDDINASLNTIYHELQRRDNYVTAEKVKNEFLGHSENHDTILNLFQKHNDDVKQLVGISKTIATYRKYEVTRRHLAEFIQSKYNLSDISIKEITPMFITDFELYLRTTCKCGYNTTAKFMQFFKRIILIARNNGILIGDPFANYKIRLEKVDRGYLTEDEIKIILKKKMVSERLEQVRDVFIFSCFSGLAYVDVANLKEDNIRKSFDGNLWIITKRQKTNTDVNVPLLDIPKMILEKYKGKLPNGKVLPIISNQK,not failed
11,MKSVKTLLTRPFNWVVLTFCIIFVGLFIFTFFNAKFYDTPIGQITQINNTQSTQVSDEHHNKDTKHKETLHIHILNGKFEGKTTTITHEYTESQADSEAFSKNDKVLLHVDKNLTTAYITEKKRDSLVVAITGIFLLTVLLVGKKIGLQSILSLALNTCIVLLAIYIHNQSPNISLFGLMSIAIFISTTLTLVLVTGWQWRTLITIISTLLGTFLCVGITQCIIQITDGSGLKFETMSFLTLPPKEVFLASVMIGSLGAVMDVAITIASGMAEILRRTPDISMRRWALAGCNIGQDIMGTMTNILLFSYLSGSLPMLLIYLKNANTITYTISMNWSLEISRAITGGIGIVLTIPITILLMQVWFKLRGVKS,failed
12,MKSVQEKRNNTRAFKTVAKSWFATKTTWSEDYQRSVWTRLETYLFPDIGNKDIAELDTGDLLVPIKKIEKLGYLEIAMRVKQYATAIMRYAVQQKMIRFNPAYDLEGAVQKLEHHHHHH,not failed
13,MKSWTILLSTLCLFSCNQQENKFEKYVDPLIGTDIRIVQGKDKNSTEERGQIMPAVGVPHGMTNWVAQTQATEQKCHPPYYYFQDAIQGFRASHWMNGSCTQDYGSITIMPLSNKLEIDPVKRASTFDHTQETATPSYYSVDLNDYDIHAELTGLSRAGIMQFSFEQDGDHYIVIEPNSDEGVAFVEIDPEKKEITGYNPVHRIYQGYGKEAGFSGHFVIQLNEEIADYGVWDSTTITPGRKSAKGQKHAVGAWIKLTSDKPGKILVKVATSFTSIDNARKNLAAEIPGWNFNEVRQASSDIWNQALGQIAVKGNNEKEKVKFYSALYNAHFLPRAFSDVDGSYPRFDGDGQIMKMDHGTYYCDFSQWDTYRAVHPLFSILTPSRNGDMAHSLVLKGQQGGWLPIFPSWNSYTAAMIGDHCIAMIGDAIVKDTPGFDYEEAYTLMRKNAFEANPDSGSYRDGKGRRAMESYLKYNYVPLEDQVTEAFHRREQVSRTLEYAYDDFVLAQVAKKLGKTDDYKALIKRAENYRNVIDPETGYARGRHADGTWIEPFDPFASTSFICEGTPYHYTWYAPQDIAGLIRHMGGKERFINRLDNFFEGNYYWHGNEPGHHIAYLFAYAGEPWKTQKWVHDIINREYFTTPDGLSGNDDAGQMSSWLVFSMVGFYPVCPGMPYYVIGSPSFEESVITLENGKKFTIEAKGASEKNIYIQSATLNGQPYNKSYILHKDIMNGGILSFVMGDSPNKEWASSAGSLPPSMGL,failed
14,MKTDTEWLLCDFHVHTNMSDGHLPLGEVVDLFGKHGVDVVSITDHIVDRRTLEQRKRNGEPLGAITEDKFQDYLKRLWREQKRAWEEYGMILIPGVEITNNTDLYHIVAVDVKEYVDPSLPVEEIVEKLKEQNALVIAAHPDRKKQDEEHLSWYLWANMERFKDTFDAWEIANRDDLFNSVGVKKYRYVANSDFHELWHVYSWKTLVKSEKNIEAIKEAIRKNTDVAIYLMRKNRLSSLSDVI,not failed
15,MKTEKFFTHPIGVFIAAIVATFLWGSAFPFIKLSYVELGIQPQEVGEQILFAGYRFFLSGFMLLLFFKVLGKDMSFKKGTGKQLIQIGLFQTFLQYICFYIGMSYSSGIEGAIISGTSSFFQILLAHFLYKDDALNMRKIIGVSIGFCGVVLVNMPSDGSLSFHFGIGSLLLLSAAMLYSYGNILAKEGSKTLDVGYMTAYQMMFGSIGLLCIGALQVGVMPFTFSLHALLMLIYLSFLSAAGFCIWNTIMKYNKVGKVSMYMFFIPVFGVLLSSMILGEAIHSFVLLGLACVAAGIIVVNRTPAKQKIEKEKQVA,failed
16,MKTESTGKALMVLGCPESPVQIPLAIYTSHKLKKKGFRVTVTANPAALRLVQVADPEGIYTDEMVDLESCINELAEGDYEFLAGFVPNDAAAAYLVTFAGILNTETLAIIFDRDADVLEELVNEIMETLDAEIIAARAHHNPAPLRVRIDRFMEEKP,not failed
17,MKTFHLTTQSRDEMVDITSQIETWIRETGVTNGVAIVSSLHTTAGITVNENADPDVKRDMIMRLDEVYPWHHENDRHMEGNTAAHLKTSTVGHAQTLIISEGRLVLGTWQGVYFCEFDGPRTNRKFVVKLLTD,not failed
18,MKTFIWNSNYETGVAKVDDQHQCLVEIINEYSHLLANNTTTETDIELTLNKLIDYTKFHFKDEEQLMYSVGLDTRHITHHEKLHRDILDEISTLLSDQVTDKLSIARYILDLIIHWLVYHILGTDMNMAKLEHHHHHH,failed
19,MKTFIWNSNYETGVAKVDDQHQCLVEIINEYSHLLANNTTTETDIELTLNKLIDYTKFHFKDEEQLMYSVGLDTRHITHHEKLHRDILDEISTLLSDQVTDKLSIARYILDLIIHWLVYHILGTDMNMAKQMKAIQGGLSARDAYDFEEKIKDKSTEPLLEALNALFIQISERNKDLMELNKTLEAKVISRTQQLSERNKELAILSLTDPLTNMANRRHAMQQLTLLWEESVNNNLPLSCLMIDVDYFKQINDTHGHDIGDVVLIELARVFQHAIRTDDIACRLGGDEFFIICPATELEGGLLIAELINEQVESLSIDISDSQLSLSTSIGVATKTAQMTSIEDLMKAADDGVYSAKSNGRGCTKSIQ,failed
20,MKTFKGKVTTTLAVLSAMSLFAFSASLLAGSLDLSGRSDDDTQQDTGRKPAQIIDFVGVEKGDKVLDLLAGGGYYSELLSRVVGEKGEVTLQIPKAYLKYAEKSIKVRLANDRLKNVTYLLSEADDLKLSENTYDSAFLVLGFHDMFFKEDSWNFTADEVMPQVLTSLKSGGKLLVIDHDATENSGIRDVKSLHRIDSAFVKADLEKRGFKLVKTSKILENNADDHSKLVFVPELRRKTDRFVMLFEKI,failed
21,MKTHFYRLKFKKSIFFAVFLSFFSLLFAVDYFEEGKKLLYADKPQEAVSALFKASQEAGTPKSVYLYLGVAYFRMGKYSEALTYLSQGKDKDILNGHLYYYNIGNVYFLQNQFEASELAYNEAISSNGLYAPAFLNRANTRIKLEKLEGALQDYKIYLNLNPETLQRSSIEKMISLLEGLAEEAERAKALAEAKKAAEEAERLAAEARYKKLMEDVNANLSSVDNADALSAGADNTIDYSEENELD,failed
22,MKTIDLADIQAFLYRESRLLDDKAWDAWLDCYRADAVFWMPSWDDADALVTDPQREISLIYYPNRQGLEDRVFRIKTERSSATVPDTRTSHNIANVERESADGDVHTVRFNWHTLSYRYKTVSSYFGMSRYAIDFSGDAPKIVSKYVVLKNDYINQLIDIYHI,not failed
23,MKTIGLLGGMSWESTIPYYRLINEGVKARLGGLHSASLVLHSVDFHDIEACQSAGDWDRAGEILAEAAVGLQQAGAEGIVLCTNTMHKVADAIAARCQVPFLHIADATGRAIAAKGQRRVALLGTRYTMEQTFYRGRLQEQFAIETLIPEADDRAQINQIIFDELCLGTFSEASRDYYLQTIAALAEQGAEGVIFGCTEIGLLVPAELSPLPVFDTAAIHAEDAVNFMLSAGPTPAA,failed
24,MKTINIVAGGPKNLIPDLTGYTDEHTLWIGVDKGTVTLLDAGIIPVEAFGDFDSITEQERRRIEKAAPALHVYQAEKDQTDLDLALDWALEKQPDIIQIFGITGGRADHFLGNIQLLYKGVKTNIKIRLIDKQNHIQMFPPGEYDIEKDENKRYISFIPFSEDIHELTLTGFKYPLNNCHITLGSTLCISNELIHSRGTFSFAKGILIMIRSTDLEHHHHHH,not failed
25,MKTINVITLVLLIVGGLNWGLVGLFQFDLVAALFGGQDALLSRVVYTLVGISALRQLVPLFRNNHDTAEHHTSPHVRNNP,failed
